In publication PMC6524640 (2019):
No end group written: not given here.

B1: CEACAM1 short form peptide SFWT (peptide)
chain: HFGKTGSSGPLQ
modifications: not fully specified
B2: CEACAM1 long form peptide LFWT (peptide)
chain: HFGKTGRASDQR
modifications: not fully specified

Target: calmodulin (Homo sapiens, UniProt P0DP23)
Test: NMR titration

| Binder | Kd [mM] |
| --- | --- |
| B1 | 1.44 |
| B2 | 0.76 |
